Measurements taken from patent US20220298254A1 (HUMMINGBIRD BIOSCIENCE HOLDINGS PTE, published 2022).
Like-named read-outs stand apart in the source and are kept apart here.

Tests used:
[1] = molecular target: T1, human CD47 (recombinant protein, construct not stated) (human, UniProt Q08722 19-141); assay: ELISA on coated human CD47
T1 construct: also called hCD47; human CD47 protein
Description: (§1) 96-well plates (Nunc, Denmark) were coated with 1 μg/ml of human CD47 or VISTA protein in PBS, for 1 h at room temperature. Plates were blocked for 1 h at room temperature with 1% BSA in Tris buffer saline containing 0.05% Tween 20 (TBS-T). The test antigen-binding molecules were added at concentrations ranging from to 0.002 μg/ml to 200 μg/ml, and the plates were incubated at room temperature for 1 h. Plates were then washed three times with TBS-T, and were then incubated with a HRP-conjugated secondary antibody for 1 h at room temperature. After washing, plates were developed with colorimetric detection substrate 3,3′,5,5′-tetramethylbenzidine (Turbo-TMB; Pierce, USA). The reaction was stopped after 3.5 min with 2M […], and OD was measured at 450 nm.

human VISTA protein = human VISTA protein (human, UniProt Q9H7M9 33-194, limits assumed); assay: ELISA on coated human VISTA protein
Description: as §1
In a separate ELISA, the antigen-binding molecules were evaluated for binding to human VISTA.

his-tagged human CD47 [2] = molecular target: T2, his-tagged human CD47 (human, UniProt Q08722 19-141); assay: BLI, his-tagged human CD47 on anti-Penta-HIS (HIS1K) sensors, antibody as analyte
T2 construct: not shown: his tag
Description: (§2) Buffer baseline was obtained for 30 s, and then sensors were loaded with his-tagged human CD47 (1.2 μM) for 120 s.

[3] = molecular target: T3, untagged human CD47 protein (Sinobiological Inc) (human, UniProt Q08722 19-141); assay: competition ELISA: inhibition of His-tagged SIRPα binding to coated human CD47
T3 construct: Bought

[4] = molecular target: T1, human CD47 (recombinant protein, …); assay: BLI (BLItz), IgG1 captured on anti-human Fc tips, human CD47 as analyte, 1:1 global fit
Description: Bio-Layer Interferometry (BLI) experiments were performed using a single channel BLItz system (ForteBio, Menlo Park, Calif.) using Anti-human immunoglobulin G (IgG) Fc (AHC) coated biosensor tips (Pall ForteBio, Menlo Park, Calif.) for capturing human IgGs. Biosensors were first hydrated for at least 10 m in assay buffer (phosphate buffered saline) followed by buffer baseline for 30 s and loading of the human IgGs onto the biosensor tips at concentrations ranging from 25-50 nM for 120 s. The tips were then washed briefly for 30 s with the assay buffer to remove nonspecifically bound proteins or unbound IgGs for obtaining a second buffer baseline. […] All the BLITz runs were measured at room temperature at a stirring speed of 1000 rpm and AHC biosensors were regenerated using 10 mM of glycine (pH 2.7) after the assay. Binding affinity between the immobilized antibodies on the AHC sensors and human CD47 were determined by analyzing the binding kinetic curves using the software BLItz Pro. All the sensorgrams were reference subtracted and globally fitted into a 1:1 model which analysed the binding curves at different concentrations of antigens and generated kinetic constants (KD/Ka/Kd) for the globally fitted data. […]
(§3) The anti-CD47 antibody clones in IgG1 format were analyzed for binding affinity to human CD47.

[5] = molecular target: T1, human CD47 (recombinant protein, …); assay: as above; remark: listed apart in the source
Description: Biosensors were first hydrated for at least 10 m in assay buffer (phosphate buffered saline) followed by buffer baseline for 60 s and loading of the human IgGs onto the biosensor tips at 25 nM for 120 s. The tips were then washed briefly for 60 s with the assay buffer to remove nonspecifically bound proteins or unbound IgGs for obtaining a second buffer baseline. The association phase of the IgGs with antigens (250 nM to 62.5 nM) was set up at 120 s which was followed by a dissociation phase (assay buffer alone) for 120 s. All the BLITz runs were measured at room temperature at a stirring speed of 1000 rpm and AHC biosensors were regenerated using 10 mM of glycine (pH 2.7) after the assay. Binding affinity between the immobilized antibodies on the AHC sensors and human CD47 were determined by analyzing the binding kinetic curves using the software BLItz Pro. All the sensorgrams were reference subtracted and globally fitted into a 1:1 model which analysed the binding curves at different concentrations of antigens and generated kinetic constants (KD/Ka/Kd) for the globally fitted data. All the binding curves were subjected to step correction which corrects the misalignment between association and dissociation steps and only the curves with R² values greater than 0.9 were used for analysis.

his-tagged human CD47 [6] = molecular target: T2, his-tagged human CD47; assay: BLI (Octet), his-tagged human CD47 loaded on anti-Penta-HIS (HIS1K) sensors, antibody as analyte
Description: as §2

[7] = molecular target: T1, human CD47 (recombinant protein, …); assay: BLI (BLItz), IgG captured on anti-human IgG Fc (AHC) tips, human CD47 as analyte, global 1:1 fit
Description: Bio-Layer Interferometry (BLI) experiments were performed using a single channel BLItz system (ForteBio, Menlo Park, Calif.) using Anti-human immunoglobulin G (IgG) Fc (AHC) coated biosensor tips (Pall ForteBio, Menlo Park, Calif.) for capturing human IgGs. Biosensors were first hydrated for at least 10 m in assay buffer (phosphate buffered saline) followed by buffer baseline for 30 s and loading of the human IgGs onto the biosensor tips at concentrations ranging from 25-50 nM for 120 s. The tips were then washed briefly for 30 s with the assay buffer to remove nonspecifically bound proteins or unbound IgGs for obtaining a second buffer baseline. The association phase of the IgGs with antigens (500 nM-0 nM) was set up at 120 s which was followed by a dissociation phase (assay buffer alone) for 120 s. All the BLITz runs were measured at room temperature at a stirring speed of 1000 rpm and AHC biosensors were regenerated using 10 mM of glycine (pH 2.7) after the assay. Binding affinity between the immobilized antibodies on the AHC sensors and human CD47 were determined by analyzing the binding kinetic curves using the software BLItz Pro. All the sensorgrams were reference subtracted and globally fitted into a 1:1 model which analysed the binding curves at different concentrations of antigens and generated kinetic constants (KD/Ka/Kd) for the globally fitted data. All the binding curves were subjected to step correction which corrects the misalignment between association and dissociation steps and only the curves with R² values greater than 0.9 were used for analysis.
as §3

B1: anti-CD47 clone 1-1-A1_BM IgG1 (antibody, V domains shown)
VH: QVQLQQSGPDLKKPGASVKVSCKVSGYTFTNYVIHWVRQKPGQGLEWMGYINPYNDGTKSNEKFKGKATLTSDKSSTSAYMELSSLTSEDTAVYYCASGGYYTMDYWGQGTSVTVSS
VL: DVVMTQTPLSLPVTLGDQASISCRSSQHLEYSNGYSYLHWYQQRPGQSPQLLIYKISNRFSGVPDRFSGSGSGTDFTLKISRVEAEDLGVYYCSQSTHVPYTFGGGTKLEIKR
EC50 [1]: 0.0018 µg/mL | Fold increase in EC50 relative to 1-1-A1_BM [1]: 1 fold | binding result (human VISTA protein): no binding (tested: 0.002 µg/ml to 200 µg/ml) | Kd (his-tagged human CD47 [2]): 10.4 nM | Fold increase in IC50 relative to 1-1-A1_BM [3]: 1 fold | IC50 [3]: 0.474 µg/mL | Kd [4]: 16.1 nM | Kd [5]: 9.31 nM | koff [5]: 0.00121 s⁻¹ | kon [5]: 130000 M⁻¹ s⁻¹ | koff (his-tagged human CD47 [6]): 0.000618 s⁻¹ | kon (his-tagged human CD47 [6]): 59400 M⁻¹ s⁻¹ | koff [7]: 0.00217 s⁻¹ | kon [7]: 134000 M⁻¹ s⁻¹
